For 1 molecule, Kd results are on record in paper PMC3864023.

The target in one series is ParC WT;ParE (Escherichia coli;Escherichia coli, UniProt P0AFI2;P20083 1-752;1-630, |). The experiment in a line: fluorescence anisotropy. Background: In fluorescence polarisation assays a small probe gives low polarisation when free and higher when bound to something large.
In another series the target is ParC R564D;ParE (Escherichia coli;Escherichia coli, UniProt P0AFI2;P20083 1-752;1-630, R564D|). The experiment in a line: fluorescence anisotropy.

B1: 45mer duplex with strong topo II site, FAM (dsDNA)
DNA 1: GCCTATCCGAGGATGACGATGCGCGCATCGTCATACAGCGAATGG
DNA 2: CCATTCGCTGTATGACGATGCGCGCATCGTCATCCTCGGATAGGC
On to B1, for which the Kd is 25 5 with ParC WT;ParE and 15 3 in the series with ParC R564D;ParE.
